# Target: GFP-EBP2 (human) (UniProt Q99848)
# Assay: FRET or BRET
# Chain of UniProt Q99848 (Q99848 whole entry): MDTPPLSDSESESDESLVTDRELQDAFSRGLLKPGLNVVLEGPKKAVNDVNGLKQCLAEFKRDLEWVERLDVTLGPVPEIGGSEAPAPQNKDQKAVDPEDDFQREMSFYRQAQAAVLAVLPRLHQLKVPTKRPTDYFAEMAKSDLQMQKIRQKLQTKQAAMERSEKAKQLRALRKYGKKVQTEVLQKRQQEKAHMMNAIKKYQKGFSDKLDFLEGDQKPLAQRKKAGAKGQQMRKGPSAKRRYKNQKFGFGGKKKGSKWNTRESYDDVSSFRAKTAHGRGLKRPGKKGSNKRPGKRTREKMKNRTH
substance,measurement,value
EBNA-1-DsRed (from UniProt P03211 1-641) (natural protein),mean fluorescence intensity at 588 nm resulting from FRET,167
same,mean ratio of fluorescence intensity (FI 588 nm/ FI 588 nm + FI 513 nm),0.4

# From article doi:10.64898/2025.12.29.696898
